Test results taken from the supplement of paper PMC12042874.
± gives the uncertainty stated by the source.

Test: amyloid nucleation score (Sup35N fusion, yeast selection) (log enrichment); library NNK2; higher = more nucleation; inactive = no reads after selection
How it was run: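 Growth for 7 days at 30°C on medium lacking adenine and uracil followed a 24-hour induction with 100 μM copper sulfate of psi-negative yeast expressing peptides of 20 random codons fused to Sup35N. Input and output plasmid inserts were sequenced with Illumina, and sequences with under 100 input reads were excluded. Nucleation score is the DiMSum log enrichment of output over input reads, centred on the mode score of non-aggregating sequences.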
With VFLACNDCLCVWLSVEVTSE the amyloid nucleation score was “inactive”. In the case of VFNWTNLHYLMAQESVMGY, the amyloid nucleation score is reported as 0.148 ± 0.35. For VFQQFNS, the amyloid nucleation score was 0.244 ± 0.62. Substance VFRISLRSSLYML has an amyloid nucleation score of 4.13 ± 0.099. In the case of VFSCYSVQHRRLSWMSCD, the amyloid nucleation score is reported as -0.385 ± 0.41. For VFSLCGIYMRGHYSYWCYNK, the amyloid nucleation score was “inactive”. VFTGNLICYMDGGTGFSCFQ showed an amyloid nucleation score of 9.018 ± 0.029. Work on VFVRRVGPQLFDPRSSNGVD yielded an amyloid nucleation score of 0.951 ± 0.81. Work on VFWNIAFNSYMQRSCYIVVF yielded an amyloid nucleation score of 2.12 ± 0.14. For VFYSWKKLVSVLTSRYGFHV, the amyloid nucleation score was -0.965 ± 0.78. VGCCVQGNLYSSFLAMFVA gave an amyloid nucleation score of 7.352 ± 0.028. Work on VGCFTRSIGHAM yielded an amyloid nucleation score of 0.257 ± 0.23. In the case of VGDQF, the amyloid nucleation score is reported as “inactive”. Work on VGFLW yielded an amyloid nucleation score of 2.22 ± 0.13. For VGFSLLNKTLCFGDRCTNIS, the amyloid nucleation score was “inactive”. For VGGRSGE, the amyloid nucleation score was -0.159 ± 0.26. In the case of VGIEEVIH, the amyloid nucleation score is reported as -0.249 ± 0.23. For VGLFGWRGKEGF, the amyloid nucleation score was -0.033 ± 0.76. With VGLWLTRVPPFVYGYRGSVS the amyloid nucleation score was 0.165 ± 1. Substance VGPFSDH has an amyloid nucleation score of -0.472 ± 0.79. VGSFSTVGCR showed an amyloid nucleation score of 0.003 ± 0.36. Work on VGSLYICDLAPGKHKYCSVV yielded an amyloid nucleation score of 0.266 ± 0.56. For VGSNKGAIIGLMVGGMVVIA, the amyloid nucleation score was 2.33 ± 0.21. For VGTISVFIIFHASHVGILHS, the amyloid nucleation score was -1.65 ± 0.53. For VGTWATFYVLTCKGEFDPGL, the amyloid nucleation score was 7.83 ± 0.083. For VGVYICFILGH, the amyloid nucleation score was 3.56 ± 0.14. In the case of VGYLRELLYAEGT, the amyloid nucleation score is reported as -0.476 ± 0.35. For VHEPAQV, the amyloid nucleation score was 0.352 ± 0.35. For VHFASPRRACRFIRRRYTTH, the amyloid nucleation score was 3.77 ± 0.11. In the case of VHLANSMLY, the amyloid nucleation score is reported as 3.15 ± 0.047. In the case of VHQRYRSVRCWNWIVM, the amyloid nucleation score is reported as -0.545 ± 0.48. VHSLFVNIRMLCTDGFASTG gave an amyloid nucleation score of 4.479 ± 0.038. For VHVVSRAQTCEFF, the amyloid nucleation score was 0.956 ± 0.67. VIDGNKDGSMTFPVQGDALR gave an amyloid nucleation score of 1.2 ± 0.48. VIDHLRCIETSVWGVVVWRI gave an amyloid nucleation score of -0.148 ± 0.35. For VIFSGFFYISPTADPHDSFI, the amyloid nucleation score was “inactive”. VIFVRYWGVDYHLADLVIN showed an amyloid nucleation score of -0.563 ± 0.55. VIIGIFCNSKSS gave an amyloid nucleation score of 4.33 ± 0.1. In the case of VIKKQCCHTYSVLTFRILNC, the amyloid nucleation score is reported as 0.151 ± 0.63. For VIKMSVNNVELVGMDHYSCV, the amyloid nucleation score was 0.606 ± 0.23. In the case of VILNYVIYL, the amyloid nucleation score is reported as 10.08 ± 0.071. With VINGVHLSRVLYNPILEFIT the amyloid nucleation score was “inactive”. Work on VINLDKLIFVLEDNCIVFWE yielded an amyloid nucleation score of 6.374 ± 0.023. VINSLMWKFTVIMRGVMNRI gave an amyloid nucleation score of 0.12 ± 0.25. With VINVKEYVGYIVSKVDKGGP the amyloid nucleation score was 4.24 ± 0.049. In the case of VIPYILTCWVYFIDCLWRRK, the amyloid nucleation score is reported as 0.948 ± 0.66. VIPYVIQSYWMGMN gave an amyloid nucleation score of -1.56 ± 0.75. Work on VISGGFMF yielded an amyloid nucleation score of 4.63 ± 0.069. For VITLRGAPYTEWLLRALLAS, the amyloid nucleation score was 0.734 ± 0.81. For VIWYLRMVSTCNERGVKGIE, the amyloid nucleation score was “inactive”. In the case of VIYSYMSGIVYGVMRSSPFW, the amyloid nucleation score is reported as “inactive”. With VKDDTSHPYRGFYYRVIRRN the amyloid nucleation score was 1.08 ± 0.16. In the case of VKFAGWTCSL, the amyloid nucleation score is reported as -0.314 ± 0.62. VKFCVWCGD showed an amyloid nucleation score of 7.039 ± 0.06. With VKLIETSLLSFLIE the amyloid nucleation score was -0.33 ± 0.76. VKMMWNCSLVDALATRGNVV showed an amyloid nucleation score of 0.505 ± 0.54. VKTRCVVHCMNNFPGCMIEL gave an amyloid nucleation score of 6.887 ± 0.065. For VLAILVTNLRLSSWFQSHMM, the amyloid nucleation score was 0.837 ± 0.52. In the case of VLCTRRLPLYHSSNDQ, the amyloid nucleation score is reported as 0.128 ± 0.32. With VLDVVLYPGKF the amyloid nucleation score was 0.176 ± 0.26. Work on VLEKRFIRL yielded an amyloid nucleation score of -0.785 ± 0.46. In the case of VLGYPKTSTVHALPHTTMLP, the amyloid nucleation score is reported as 0.943 ± 0.53. VLHCHWTGFSRSTCVHLVHF showed an amyloid nucleation score of 3.63 ± 0.084. With VLIALKLFWIVQWYICAICV the amyloid nucleation score was -0.099 ± 0.39. For VLLEIY, the amyloid nucleation score was -0.384 ± 0.65. Substance VLLLGVSVRHFKGLGVPTKR has an amyloid nucleation score of 5.06 ± 0.065. VLLSITSRRVMPTSKI showed an amyloid nucleation score of 0.594 ± 0.81. In the case of VLMEWTLGVTHDNISDDYSD, the amyloid nucleation score is reported as 2.58 ± 0.082. For VLNDFFWEHLPMGHNVGLTL, the amyloid nucleation score was -0.252 ± 0.55. With VLNGNLSFLSAVWFGKM the amyloid nucleation score was 6.729 ± 0.053. For VLNIARVRHDKG, the amyloid nucleation score was 3.7 ± 0.051. VLNITEIYFVG gave an amyloid nucleation score of 8.125 ± 0.051. VLRGSFKGFFYRWIKCGFEW gave an amyloid nucleation score of -1.24 ± 0.64. VLRYLDFDYRLELFIYVMHR gave an amyloid nucleation score of -1.48 ± 1.1. VLSDL gave an amyloid nucleation score of -1.18 ± 0.75. In the case of VLSNNFWRMSNFWVRMRHTL, the amyloid nucleation score is reported as -0.25 ± 0.63. With VLSSRLASIEGNKSSVGFYG the amyloid nucleation score was “inactive”. Substance VLSYMFVYETMSEIFTFLVG has an amyloid nucleation score of -0.586 ± 0.49. For VLSYRVHLEPARCFSGGYCY, the amyloid nucleation score was 0.512 ± 0.19. VLTLPKRNHVHL gave an amyloid nucleation score of 0.874 ± 0.35. VLVLDR showed an amyloid nucleation score of 3.46 ± 0.073. Work on VLWNKSALNSKNSRTG yielded an amyloid nucleation score of 2.57 ± 0.1. Substance VLYQGALRYGNVRRGHLIRF has an amyloid nucleation score of 0.105 ± 1.1. Work on VMCFEYYVYYDYDYTCTFNY yielded an amyloid nucleation score of 0.842 ± 0.12. VMCFNAVSLTFVFRDMTSYY gave an amyloid nucleation score of 8.804 ± 0.05. With VMCSWVGDLWFCESIRAQEV the amyloid nucleation score was 8.035 ± 0.047.
